T1: full length GPVI on transfected DT40 cells (with FcR-γ chain) (UniProt Q9HCN6 21-339)
T1 sequence (looked up): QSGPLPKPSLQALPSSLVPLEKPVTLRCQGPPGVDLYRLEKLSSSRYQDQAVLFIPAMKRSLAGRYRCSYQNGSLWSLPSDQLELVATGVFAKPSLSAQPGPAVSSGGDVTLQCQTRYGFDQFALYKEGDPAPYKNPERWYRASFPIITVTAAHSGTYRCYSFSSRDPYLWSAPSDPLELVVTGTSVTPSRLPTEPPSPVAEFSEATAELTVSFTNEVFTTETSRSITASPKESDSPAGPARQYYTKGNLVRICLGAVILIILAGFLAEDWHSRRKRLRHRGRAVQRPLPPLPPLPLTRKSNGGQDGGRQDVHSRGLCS

T2: recombinant GPVI-Fc (dimeric; D1 and D2 domains of GPVI fused to the Fc domain from IgG) (human, UniProt Q9HCN6 22-203)
T2 construct: range 22-203; also called GPVI-Fcγ; dimeric GPVI; not shown: Factor Xa cleavable junction and Fc domain from IgG (Sigplg+ vector)
T2 sequence (looked up): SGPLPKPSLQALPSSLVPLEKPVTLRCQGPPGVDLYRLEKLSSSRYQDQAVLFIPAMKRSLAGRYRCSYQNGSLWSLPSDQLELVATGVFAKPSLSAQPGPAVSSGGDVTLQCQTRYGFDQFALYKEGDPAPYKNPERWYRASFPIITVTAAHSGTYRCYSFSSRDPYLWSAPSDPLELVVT

T3: GPVI on human washed platelets (human, UniProt Q9HCN6 21-339)
T3 sequence (looked up): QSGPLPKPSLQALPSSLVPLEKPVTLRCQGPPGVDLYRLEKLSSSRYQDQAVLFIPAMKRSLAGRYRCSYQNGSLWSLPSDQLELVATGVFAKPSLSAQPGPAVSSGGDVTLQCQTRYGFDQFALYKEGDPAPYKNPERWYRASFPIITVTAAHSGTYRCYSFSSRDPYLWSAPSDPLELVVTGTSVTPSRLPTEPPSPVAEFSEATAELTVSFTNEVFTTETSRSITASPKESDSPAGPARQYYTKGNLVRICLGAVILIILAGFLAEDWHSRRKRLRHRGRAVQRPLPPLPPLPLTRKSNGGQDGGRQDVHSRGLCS


Legend:
[1] = target: full length GPVI on transfected DT40 cells (with FcR-γ chain) (UniProt Q9HCN6); experiment: cell-based or functional assay
[2] = target: T1, full length GPVI on transfected DT40 …; experiment: cell-based or functional assay
[3] = target: T2, recombinant GPVI-Fc (dimeric; D1 and D2 …); experiment: solid-phase binding assay: GPVI-Fc coated surface, nanobody 100 nM per the legend (1 µM per paragraph 122), anti-His HRP, Fc-surface signal subtracted, normalised to Nb35 [cont) b]
Protocol: FIG. 1. […] Results were plotted as a percentage of total signalling in the presence of collagen only. Dotted lines represent 100, 60 and 20% signalling levels. Data represent mean values of three experiments performed in triplicate±standard deviation. b) Surface binding assay of one nanobody (100 nM) from each family binding to a GPVI-Fc coated-surface. All the binding results have been normalised to Nb35 which gave the highest readout. Binding of each nanobody to the Fc domain-coated surface was tested and subtracted from the GPVI-Fc readings. Binding was detected using HRP conjugated anti-His antibody. The average binding of all the nanobodies to BSA represents a non-specific binding control. Data represent mean values of three experiments±standard deviation.
The recombinant GPVI used for immunisation and testing consisted of the extracellular D1 and D2 domains fused with the Fc domain from IgG. Immunisation with GPVI-Fc yielded 54 distinct nanobody sequences. The Fc domain was used to test whether the nanobodies recognise this region. The 54 nanobodies were categorized into 33 distinct binding classes on the basis of their complementary determining loop (CDR) 3 regions, which is the region that confers ligand specificity. Nanobodies (1 μM) from each binding class were tested for their ability to recognise a recombinant GPVI-Fc coated surface (FIG. 1b). The degree of nanobody binding varied between classes and could be categorised into strong (>50%), moderate (>20%) and weak binders (<20%). Strong binders included Nb2, 21, 35 and 52. Moderate binders included Nb7, 18, 28 and 54. All other nanobodies were considered to be weak binders.

[4] = target: T2, recombinant GPVI-Fc (dimeric; D1 and D2 …); experiment: solid-phase binding assay, displacement of GPVI-Fc (100 nM) from a collagen surface
[5] = target: T3, GPVI on human washed platelets; experiment: cell-based or functional assay
[6] = target: monomeric GPVI (GPVI-Fc cleaved with Factor Xa, Fc removed) (human) (UniProt Q9HCN6); experiment: SPR (Biacore T200), GPVI amine-coupled on CM5 chip, Nb2 in solution, 1:1 kinetic fit; immobilised monomeric GPVI, not GPVI-Fc
[7] = target: T2, recombinant GPVI-Fc (dimeric; D1 and D2 …); experiment: SPR (Biacore T200), GPVI-Fc amine-coupled on CM5 chip, Nb2 in solution, 1:1 kinetic fit
Protocol: Surface plasmon resonance experiments were performed using a Biacore T200 instrument (GE Healthcare). GPVI was immobilised directly onto the CM5 chip using amine-coupling. Reference surfaces were blocked using 1M ethanolamine pH 8. All sensograms shown are double reference subtracted and at least two replicates were injected per cycle as well as experimental replicates of n=3. Experiments were performed at 25° C. with a flow rate of 30 μL/min in HBS-P running buffer (10 mM HEPES pH 7.4, 0.15 M NaCl, 0.005% v/v surfactant P20). Each concentration of Nb2 was run as follows; 120 sec injection, 900 sec dissociation. Kinetic analysis was performed using the Biacore T200 Evaluation software using a global fitting to a 1:1 binding model.

[8] = target: T2, recombinant GPVI-Fc (dimeric; D1 and D2 …); experiment: solid-phase binding assay, displacement of GPVI-Fc (100 nM) from a collagen surface (legend of Fig. 4a; differs from the text)

Molecule	inhibition of collagen-stimulated NFAT reporter activity (nanobody 100 nM, collagen 10 µg/ml) [2] [%]	binding result [3]	further results
collagen (Horm collagen I, fibrillar) (ligand)	–	–	fold increase in NFAT activity (luciferase reporter) [1]: 8.3 fold
Nanobody 19 (Nb19) (VHH) VHH: QVQLQESGGGLVQAGGSLRLSCAASGRTFSSDAMGWFRQAPGKEREFVAAIRWSGGSTYYADSVKGRFTISRGNAKNTVYLQMNSLKPEDTAVYYCASSLLNSYYPPDHTSYEYDYWGQGTQVTVSSAAAYPYDVPDYGSHHHHHH	> 40	binds	–
Nanobody 22 (Nb22) (VHH) VHH: QVQLQESGGGLVQAGGSLRLSCAPSGRTISSVDVGWFRQAPGKEREFVAHVTWSGGSTYAADSVKGRFTVSRDNAKNTVYLQMNSLKPEDTAVYYCAAALNGAFRDSWYPALWDEYDYWGQGTQVTVSSAAAYPYDVPDYGSHHHHHH	> 40	binds	–
Nanobody 28 (Nb28) (VHH) VHH: QVQLQESGGGLVQAGDSLRLSCAASGTYSMGWFRQAPGKEREFVAAISWSGGRTNYADSVKGRFTISRDNAKNTVYLQMNSLKPEDTAVYYCSAAIYDNVSSRIGSYTYWGQGTQVTVSS	–	binds	–
Nanobody 35 (Nb35), with C-terminal HA and His tags (VHH) VHH: QVQLQESGGGLVQAGGSLRLSCAASGVTFDSAAMAWFRQVPGKEREFVAVISTESGGRTDHADSVKGRFLISRDNARHMVYLQMNSLNPEDTAVYYCASSLLYCSASGCYANRDSYDYWGQGTQVTVSSAAAYPYDVPDYGSHHHHHH	–	–	IC50 [4]: 39 nM; IC50, inhibition of washed platelet aggregation to CRP (10 µg/ml) [5]: 1 nM; IC50, inhibition of washed platelet aggregation to collagen (5 µg/mL) [5]: 115 nM
Nanobody 5 (Nb5) (VHH) VHH: QVQLQESGGGLVQPGGSLRLSCAASGFTLDSHTIGWFRQAPGKEREGVSGINSSDGSTYYADSVKGRFTISRDNAKNTVYLQMDSLKVEDTAVYYCATTPFSLRGPTWVTPDEFDYWGQGTQVTVSSAAAYPYDVPDYGSHHHHHH	> 40	–	–
Nanobody 44 (Nb44) (VHH) VHH: QVQLQESGGGLVQPGGALRLSCAASGFTLDYYAIGWFRQAPGKEREAVSCISSSDGSTYYADSVKGRFTISRDNAKNTVYLQMNSLKPEDTAVYYCATDPFYSDINCKSYEYAYWGQGTQVTVSSAAAYPYDVPDYGSHHHHHH	> 40	binds	–
Nanobody 2 (Nb2), with C-terminal HA and His tags (VHH, Tagged form (detected with anti-His in ELISA and flow cytometry)) VHH: QVQLQESGGGLVQPGGSLRLSCAAAGFTFDYYAIAWFRQAPGKEREGVSCISSSDGTTYYADSVKGRFTISKDNAKNTMYLQMNSLKPEDTAVYYCATSPLYSTNDRCISEDYDYWGQGTQVTVSSAAAYPYDVPDYGSHHHHHH	–	–	IC50 [4]: 18 nM; Kd [6]: 0.58 nM; inhibition of collagen-stimulated NFAT reporter activity (nanobody 100 nM, collagen 10 µg/ml) [1]: > 80%; Kd [7]: 0.7 nM; IC50, inhibition of washed platelet aggregation to CRP (10 µg/ml) [5]: 1 nM; IC50, inhibition of washed platelet aggregation to collagen (5 µg/mL) [5]: 172 nM
Nanobody 25 (Nb25) (VHH) VHH: QVQLQESGGGLVQPGGSLRLSCAASGFTLDNYAIGWFRQAPGKEREGVSCISSSDGRTYYADSVKGRFTISRDNAKNTMYLQMNSLKPEDTAVYYCATSPLYSDSDRCIWEEYDYWGQGTQVTVSSAAAYPYDVPDYGSHHHHHH	> 40	binds	–
Nanobody 1 (Nb1) (VHH) VHH: QVQLQESGGGLVQAGGSLRLSCASSGFTFSGYQLAWFRHVAPGKEREFVAAIRWSGGITWYADSVKGRFTISRDNAKNTMYLQMNSLKPEETAVYYCAASPLYSNNYLLPDNYDYWGQGTQVTVSSAAAYPYDVPDYGSHHHHHH	> 40	–	–
Nanobody 21 (Nb21), with C-terminal HA and His tags (VHH) VHH: QVQLQESGGGLVQPGGSLRLSCAASGRTFTRSIMGWFHQAPGKEREFLAGISWSGANTYYADSVRGRFTISRDNAKNTVSLQMNSLNPEDTAVYYCAADPSHPGSLISTRRSDYDSWGRGTQVTVSSAAAYPYDVPDYGSHHHHHH	> 80	–	IC50 [4]: 61 nM; IC50 [8]: 62 nM; IC50, inhibition of washed platelet aggregation to CRP (10 µg/ml) [5]: 22 nM; IC50, inhibition of washed platelet aggregation to collagen (5 µg/mL) [5]: 85 nM
Nanobody 33 (Nb33) (VHH) VHH: QVQLQESGGGLVQAGDSLRLSCAASGRTFSSYVMGWFRQAPGKEREFVAAISWSGGSTYYADSVKGRFTISRDNAKNTVYLQMNSLKPEDTAVYYCAAADPPSFYSDYDWPRDHEYDYWGQGTQVTVSSAAAYPYDVPDYGSHHHHHH	> 40	binds	–
